Reference: publication PMC9728385

Tests used:
[1] = target: TtCST Ctc1 R395E/Y445A/F473A (Tetrahymena, UniProt A0PGB2;Q6JXI5;D2CVN7;D2CVN8 1-622;1-373;1-164;1-422, R395E;Y445A;F473A); test: EMSA
TtCST Ctc1 F264A/Y268A = TtCST Ctc1 F264A/Y268A (Tetrahymena, UniProt A0PGB2;Q6JXI5;D2CVN7;D2CVN8 1-622;1-373;1-164;1-422, F264A;Y268A); test: EMSA
Sequence of TtCST Ctc1 F264A/Y268A (A0PGB2 whole entry F264A/Y268A, chain 1 of 4): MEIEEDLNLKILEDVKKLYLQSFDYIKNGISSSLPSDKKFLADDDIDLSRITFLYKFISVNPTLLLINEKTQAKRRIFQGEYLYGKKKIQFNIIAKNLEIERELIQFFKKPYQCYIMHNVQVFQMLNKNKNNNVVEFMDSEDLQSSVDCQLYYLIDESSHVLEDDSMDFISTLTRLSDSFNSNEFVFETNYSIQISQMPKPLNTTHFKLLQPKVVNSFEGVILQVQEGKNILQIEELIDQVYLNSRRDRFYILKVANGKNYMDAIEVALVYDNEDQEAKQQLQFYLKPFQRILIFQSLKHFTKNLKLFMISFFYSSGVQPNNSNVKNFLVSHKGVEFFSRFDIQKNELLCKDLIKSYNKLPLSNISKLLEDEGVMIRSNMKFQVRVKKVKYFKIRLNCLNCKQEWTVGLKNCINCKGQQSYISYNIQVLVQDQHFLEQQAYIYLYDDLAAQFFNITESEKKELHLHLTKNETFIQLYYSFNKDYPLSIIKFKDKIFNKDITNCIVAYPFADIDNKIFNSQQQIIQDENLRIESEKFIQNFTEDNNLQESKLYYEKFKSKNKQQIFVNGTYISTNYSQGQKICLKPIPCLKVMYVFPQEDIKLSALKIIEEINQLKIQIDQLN
Sequence of TtCST Ctc1 F264A/Y268A (Q6JXI5 whole entry, chain 2 of 4): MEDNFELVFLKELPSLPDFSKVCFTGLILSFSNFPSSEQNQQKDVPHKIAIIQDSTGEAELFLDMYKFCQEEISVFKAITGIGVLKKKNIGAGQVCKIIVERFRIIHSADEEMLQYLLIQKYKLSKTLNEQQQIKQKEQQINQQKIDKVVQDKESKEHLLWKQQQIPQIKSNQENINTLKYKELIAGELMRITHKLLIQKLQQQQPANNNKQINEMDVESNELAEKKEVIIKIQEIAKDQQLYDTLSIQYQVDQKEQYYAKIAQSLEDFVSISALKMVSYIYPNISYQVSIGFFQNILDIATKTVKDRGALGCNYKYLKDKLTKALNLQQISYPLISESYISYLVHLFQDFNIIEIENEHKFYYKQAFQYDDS
Sequence of TtCST Ctc1 F264A/Y268A (D2CVN7 whole entry, chain 3 of 4): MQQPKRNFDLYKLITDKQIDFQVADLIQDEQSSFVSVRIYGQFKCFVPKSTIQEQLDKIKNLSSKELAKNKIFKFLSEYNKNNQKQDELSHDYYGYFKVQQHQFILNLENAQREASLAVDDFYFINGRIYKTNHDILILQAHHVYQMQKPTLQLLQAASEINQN
Sequence of TtCST Ctc1 F264A/Y268A (D2CVN8 whole entry, chain 4 of 4): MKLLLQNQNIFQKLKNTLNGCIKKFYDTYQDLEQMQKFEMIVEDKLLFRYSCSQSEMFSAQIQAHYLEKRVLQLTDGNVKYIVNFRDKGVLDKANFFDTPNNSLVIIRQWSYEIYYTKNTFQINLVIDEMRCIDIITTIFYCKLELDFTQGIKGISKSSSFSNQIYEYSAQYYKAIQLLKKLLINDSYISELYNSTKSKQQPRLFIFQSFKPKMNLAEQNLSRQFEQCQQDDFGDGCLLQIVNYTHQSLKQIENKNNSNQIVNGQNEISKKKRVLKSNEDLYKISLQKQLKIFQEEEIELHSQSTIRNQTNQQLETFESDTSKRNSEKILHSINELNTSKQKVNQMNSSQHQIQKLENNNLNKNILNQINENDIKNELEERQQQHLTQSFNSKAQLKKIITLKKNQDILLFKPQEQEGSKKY

Sequence of TtCST Ctc1 R395E/Y445A/F473A (A0PGB2 whole entry R395E/Y445A/F473A, chain 1 of 4): as the sequence (A0PGB2 whole entry F264A/Y268A, chain 1 of 4) above, with A264F, A268Y, R395E, Y445A, F473A counted along it
Sequence of TtCST Ctc1 R395E/Y445A/F473A (Q6JXI5 whole entry, chain 2 of 4): as the sequence (Q6JXI5 whole entry, chain 2 of 4) above
Sequence of TtCST Ctc1 R395E/Y445A/F473A (D2CVN7 whole entry, chain 3 of 4): as the sequence (D2CVN7 whole entry, chain 3 of 4) above
Sequence of TtCST Ctc1 R395E/Y445A/F473A (D2CVN8 whole entry, chain 4 of 4): as the sequence (D2CVN8 whole entry, chain 4 of 4) above

## GTTGGGGTTGGGGTTGGGGTTGGGGTTGGG (ssDNA) [d(GTTGGG)5]
[1]
  Kd: 520 nM
TtCST Ctc1 F264A/Y268A
  binding signal: 1.2 fold weaker Kd than WT
